Source: patent US20240150489A1 (ICHNOS SCIENCES, published 2024)

T1: cynomolgus CD47-ECD-Avi-His (cynomolgus monkey)
T1 construct: also called recombinant cynomolgus monkey CD47-avi-his protein
T1 chain: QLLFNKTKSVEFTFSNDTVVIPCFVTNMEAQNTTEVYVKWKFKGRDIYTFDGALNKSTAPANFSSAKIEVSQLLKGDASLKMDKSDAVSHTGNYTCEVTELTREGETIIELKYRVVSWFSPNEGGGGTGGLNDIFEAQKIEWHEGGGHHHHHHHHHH


What was measured:
[1] = target: T2, recombinant cynomolgus monkey CD38-ECD-C-his (cynomolgus monkey, UniProt Q5VAN0 45-301); assay: SPR, His-captured cyno CD38, Fab analyte; NB = no detectable binding
T2 construct: Extracellular region fused to 6-His; also called cyno CD38-C-His; recombinant cynomolgus monkey CD38 protein
Protocol: (§1) Surface plasmon resonance (SPR) was used to measure the binding affinities of the Fab fragments for human and cynomolgus monkey CD38. Affinities were measured on a Biacore T200 instrument (Biacore, GE Healthcare) at 25° C. and analyzed with the Biacore T200 Evaluation Software (v3.1).
(§2) The affinities to human and cynomolgus monkey CD38 were assessed by immobilizing CD38 and using Fab fragments as analyte. Biotinylated recombinant human CD38 protein was immobilized to around 160 RU on flow-path 2 of a Series S Sensor Chip SA or to around 100 RU on flow-path 2 of a Series S BiotinCAPture Chip and recombinant cynomolgus monkey CD38-his protein was immobilized to around 50-100 RU on flow-path 2 of a Series S CM5 Sensor Chip previously coated with anti-histidin antibody. Fab fragments were injected in single cycle kinetic at different concentrations ranging from 7.8 to 2000 nM, in HBS-EP+ buffer (Biacore, GE Healthcare, catalog NO: BR100669) at a flow rate of 30 μl/min for 3 min on flow-path 1 and 2 (flow-path 1 being used as reference). Dissociation was monitored for 5 min.

[2] = target: T3, recombinant biotinylated human CD38 Avitag, His Tag (Acrobiosystems, CD8-H82E7) (human, UniProt P28907 43-300, biotinylated (Avitag)); assay: SPR, biotinylated CD38 captured, Fab analyte, 1:1 fit;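 also: biacore T200 at 25 °C, single-cycle kinetics with Fab injected at 7.8–2000 nM for 3 min, dissociation followed 5 min, reference flow path subtracted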
T3 construct: Bought protein; also called biotinylated human CD38-avi-his protein; biotinylated recombinant human CD38 protein
Protocol: as §1, §2

[3] = target: T1, cynomolgus CD47-ECD-Avi-His; assay: SPR; cynomolgus monkey CD47; value given in the text of paragraph 230
Protocol: (§3) Surface plasmon resonance (SPR) was used to measure the binding affinities of the Fab fragments for human and cynomolgus monkey CD47. Affinities were measured on a Biacore T200 instrument (Biacore, GE Healthcare) at 25° C. and analyzed with the Biacore T200 Evaluation Software (v3.1). […] Recombinant human CD47 protein and recombinant cynomolgus monkey CD47 protein were covalently immobilized to around 50 RU on flow-path 2 and flow-path 4 respectively of the Sensor Chip surface using a commercially available amine coupling kit (Biacore, GE Healthcare, catalog NO: BR100050). […] Dissociation was monitored for 5 min. After each cycle, the Series S CM5 Sensor Chip surface coated with recombinant CD47 proteins was regenerated with 30 μl of 10 mM Glycine pH 1.5 (Biacore, GE Healthcare, catalog NO: BR100354). Experimental data were processed using the 1:1 Langmuir kinetic fitting model. Measurements included zero-concentration samples for referencing. Chi², U- and residual values were used to evaluate the quality of a fit between the experimental data and individual binding models.

[4] = target: T1, cynomolgus CD47-ECD-Avi-His; assay: SPR, CD47 amine-coupled, Fab analyte, 1:1 fit
Protocol: as §3

[5] = target: T4, human CD47-ECD-Avi-His (human); assay: SPR, CD47 amine-coupled, Fab analyte, 1:1 fit
T4 construct: also called recombinant human CD47-avi-his protein; recombinant human CD47 protein
Protocol: as §3

[6] = target: T4, human CD47-ECD-Avi-His; assay: SPR; human CD47; value given in the text of paragraph 230
Protocol: as §3

Binder | binding result [1] | Kd [2] | Kd [3] | Kd [4] | Kd [5] | Kd [6]
Anti-CD38-UCP01-D1 Fab (Fab, V domains shown, human IgG1 Fab) VH: QVQLVQSGAEVKKPGSSVKVSCKASGGIFNGYLISWVRQAPGQGLEWMGGIIPVNGLADYAQKFQGRVTITADESTSTAYMELSSLRSEDTAVYYCARTIGRYIIAFDYWGQGTLVTVSS VL: not shown | no binding (tested: 2000 nM) | 666 nM | – | – | – | –
anti-CD47-UCP01-H2 FAB (Fab, V domains shown, human IgG1 Fab; also called anti-CD47-H2; anti-CD47-H2 Fab) VH: EVQLVESGGGLIQPGGSLRLSCAASGFTLSRNTMHWVRQAPGKGLEWVSVIYQSGVTRYADSVKGRFTISRDNSKNTLYLQMNSLRAEDTAVYYCARGRYGVAGGPGYAFDVWGQGTLVTVSS VL: not shown | – | – | 142 nM | 939 nM | 878 nM | 104 nM
